Assay results from the supplement of paper PMC7125110.
± gives the standard error. Variants at the floor of the assay were thinned out.

B1: glmS ribozyme (parent)
chain: AUAAAAGCGCCAGAACUACAGAAAUGUAGUUGACGAGGAGGAGGUUUAUCGAAUUUUCGGCGGAUGCCUCCAAA

Legend:
Details in all cases: with glucosamine-6-phosphate
[1] = variants of: B1; test: self-cleavage kobs at 40 uM GlcN6P; higher = faster cleavage; RNA array
Summary of the method: (§1)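 Barcoded ribozyme variants, transcribed in situ by E. coli RNA polymerase on sequenced MiSeq chips, were followed via a hybridised Cy3 probe at 37 °C. Glucosamine-6-phosphate ranged from 40 μM to 10 mM in HEPES/KCl/Mg(OAc)2 buffer. kobs came from decay fits to per-tile medians, and kcat and KM from weighted Michaelis–Menten fits.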

[2] = variants of: B1; test: self-cleavage kobs at 640 uM GlcN6P; higher = faster cleavage; RNA array
Summary of the method: as §1

[3] = variants of: B1; test: self-cleavage kobs at 10000 uM GlcN6P; higher = faster cleavage; RNA array
Summary of the method: as §1

[4] = variants of: B1; test: self-cleavage kobs at 2500 uM GlcN6P; higher = faster cleavage; RNA array
Summary of the method: as §1

[5] = variants of: B1; test: self-cleavage kobs at 160 uM GlcN6P; higher = faster cleavage; RNA array
Summary of the method: as §1

Row | Variant | self-cleavage kobs at 40 uM GlcN6P [1] [s⁻¹] | self-cleavage kobs at 640 uM GlcN6P [2] [s⁻¹] | self-cleavage kobs at 10000 uM GlcN6P [3] [s⁻¹] | self-cleavage kobs at 2500 uM GlcN6P [4] [s⁻¹] | self-cleavage kobs at 160 uM GlcN6P [5] [s⁻¹]
1 | AUAAAAGCGCCAGUACUACAGAAAUGUAGUUGACGAGGAGGAGGUUUAUCGCAUUUUCGGCGGAUGCCUCGAAA [A14U A52C C71G] | < 1e-05 | < 1e-05 | – | – | –
2 | AUAAAGGCGCCGGAACUACAGAAAUGUAGUUGACGAGGAGGAGGUUUAUCGAAUUUUCGGCGGAUACCUCCAAA [A6G A12G G66A] | < 1e-05 | < 1e-05 | – | – | –
3 | AUAAAAGCGCCAGAACUACAGAAAUGUAUUCGACGAGGAGGAGGUUUAUGGAAUUUUCGGCGGAUGCCUCCAAA [G29U U31C C50G] | 6.96e-05 ± 3.2e-05 | – | 5.39e-05 ± 2.3e-05 | – | –
4 | AUAAAUCGGCCAGAACUACAGAAAUGUAGUUGACGAGUAGGAGGUUUAUCGAAUUUUCGGCGGAUGCCUCCAAA [A6U G7C C8G G38U] | < 1e-05 | < 1e-05 | – | – | –
5 | AUAAACGCGCCAGAACUACAGAAAUGUAGUUGUCGAGGAGGAGGUUUAUCGAAUUUUGGUCGGAUGCCUCAAAA [A6C A33U C58G G60U C71A] | < 1e-05 | – | – | – | –
6 | AUAAAAGCGCCAGAACUACAGAAAUGUAGUUGACGACGAGGAGGUUUUUCGAAUUUGCGGCGGAUGCCUCCAAA [G37C A48U U57G] | < 1e-05 | < 1e-05 | – | < 1e-05 | –
7 | AUAAAAGCGCCAGAACUACAGAAAUGUAGUUGACGAGAAAGAGGUUUAUCGAAUUUUCGGCGGAUGCCUCCAAA [G38A G40A] | < 1e-05 | < 1e-05 | < 1e-05 | < 1e-05 | < 1e-05
8 | AUAAAAGCGCCCGAACUACAGAAAUGUAGUUGACGAGGAGGAGGUUUAACGAAUUUUCGGCGGAUGCCUCCAAA [A12C U49A] | < 1e-05 | – | – | – | < 1e-05
9 | AUAAAAGCGCCAGAAAUACAGAAAUGUAGUUGACGAGGAGGAGGUUUAUCGUAUUUUCGACGGAUGCCUCGAAA [C16A A52U G60A C71G] | 5.98e-05 ± 2.3e-05 | – | – | – | –
10 | AUAAAAGCGCCAGAACUACAGAAAUGUAGUUGACGAGGAGCAGGUUUAUCGAAUUUUCGGCGCAUGCCUCCAAA [G41C G63C] | < 1e-05 | < 1e-05 | < 1e-05 | < 1e-05 | –
11 | AUAAAAGCGCCAGAACUACAGAAAUGUAGUUGUCGACGAGGAGGCUUAUCGAAUUUUCGGCGGCUGCCUCCAAA [A33U G37C U45C A64C] | < 1e-05 | – | < 1e-05 | – | –
12 | AUAAAAGCGCCAGAGCUACAGAAAUGUAGGUGACGAGGAGGAGGUUUAUCGAAUUUUCGGCGGAUGCCUCCAAA [A15G U30G] | 0.000265 ± 4.2e-05 | 0.00124 ± 0.00035 | 0.00934 ± 0.002 | – | 0.000476 ± 0.00016
13 | AUAAAAGCGCCAGAACUACAGAAAUGUAGUUGGCGAGGAGGAGGUUUAUCGAAUUUUCGGCGGAGGCCUCCAAA [A33G U65G] | < 1e-05 | < 1e-05 | < 1e-05 | < 1e-05 | < 1e-05
14 | AUAAAAGCGCCAGAACUACAGAAAUGUAGUUGACGACGAGGAGGUUUUUCGAAUUUUCGGCGGAUGCCUCCAAA [G37C A48U] | < 1e-05 | – | < 1e-05 | – | –
15 | AUAAAAGCGCCAGAACUACAGAAAUGUAGUUGACGAGGAGGAGGUUUAUCGAAUAUUCGGCGGAUGUCUCCAAA [U55A C67U] | 0.000401 ± 8.2e-05 | 0.00589 ± 0.0022 | 0.0154 ± 0.0038 | – | 0.000667 ± 0.00022
16 | AUAAAAGCGCCAGGACUACAGAAAUGUAGUUGCCGAGGAGGAGGUUUAUCGAAUUUUCGGCGGAUGCCUUCAAA [A14G A33C C70U] | < 1e-05 | < 1e-05 | < 1e-05 | < 1e-05 | < 1e-05
17 | AUAAAAGCGCCAGAACUACAGAAAUGUAGUUGAAGAGGGGGAGGUUUUUCGAAUUUUCGGCGGAUGCAUCCAAA [C34A A39G A48U C68A] | < 1e-05 | – | < 1e-05 | < 1e-05 | < 1e-05
18 | AUAAAAGCGCCAGAACUACAGAAAUGUAGUUUACGAUGGGGAGGUUUAUCGAAUUUUCGGCGGAUGCCUCCAAA [G32U G37U A39G] | < 1e-05 | – | – | < 1e-05 | –
19 | AUAAAUGCGCUAGAACUACAGAAAUGUAGUUUACGAGGAGGAGGUUUAUCGAAUUUUCGGCGGAUGCCUCCAAA [A6U C11U G32U] | < 1e-05 | – | < 1e-05 | – | –
20 | AUAAAAGUGCCAGAAUUACAGAAAUGUAGUUGACGAGGAGGAGGUUUAUCGGAUUUUCGGCGGAUGCCUCCAAA [C8U C16U A52G] | < 1e-05 | – | – | – | –
21 | AUAAAGGCGCCAGAACUACAGAAAUGUAGUUGACGAGGAGGAGGUUUAUCUAAUUUCCGGCGGAUGCCUCCAAA [A6G G51U U57C] | < 1e-05 | – | < 1e-05 | – | –
22 | AUAAAAGUGCCAGAACUACAGAAAUGUAGUUGACAAGGAGGAGGUUUAUCGAAUUUUCUGCGGAUGCCUCCAAA [C8U G35A G59U] | < 1e-05 | – | – | – | –
23 | AUAAAAGCCCCAGAACUACAGAAAUGUAGUUGACGAGGAGGAGGUUUAUCGAAUUUUCGGCUGAUGCCUCCAAA [G9C G62U] | < 1e-05 | < 1e-05 | < 1e-05 | – | < 1e-05
24 | AUAAAAGUGCCACAACUACAGAAAUGUAGUUGACGAGGAGGAGGUUUAUCGAAUUUUCGGCGGAUGCCUCCAAA [C8U G13C] | < 1e-05 | < 1e-05 | < 1e-05 | – | < 1e-05
25 | AUAAAAGCGCCAGAACUACAGAAAUGUAGUUGACGAGGAGCACGUUUAUCGAAUUUUCGGCGGAUGCCUCCAAA [G41C G43C] | < 1e-05 | < 1e-05 | < 1e-05 | – | < 1e-05
26 | AUAAAAGCGCCAGAACUACAGAAAUGUAGUUGACUAGGAGGAGGUAUAUCGAAUUUUUGGCGGAUGCCUCCAAA [G35U U46A C58U] | < 1e-05 | – | < 1e-05 | < 1e-05 | < 1e-05
